In article PMC4653696 (The Journal of Biological Chemistry, 2015):

B1: Bni5 (Bud neck-interacting protein 5), type II myosin-binding protein (natural protein, S. cerevisiae, UniProt P53890 1-448, looked up)
chain: MGLDQDKIKKRLSQIEIDINQMNQMIDENLQLVEPAEDEAVEDNVKDTGVVDAVKVAETALFSGNDGADSNPGDSAQVEEHKTAQVHIPTENEANKSTDDPSQLSVTQPFIAKEQITHTAIAIGDSYNSFVANSAGNEKAKDSCTENKEDGTVNIDQNRGEADVEIIENNDDEWEDEKSDVEEGRVDKGTEENSEIESFKSPMPQNNTLGGENKLDAELVLDKFSSANKDLDIQPQTIVVGGDNEYNHESSRLADQTPHDDNSENCPNRSGGSTPLDSQTKIFIPKKNSKEDGTNINHFNSDGDGQKKMANFETRRPTNPFRVISVSSNSNSRNGSRKSSLNKYDSPVSSPITSASELGSIAKLEKRHDYLSMKCIKLQKEIDYLNKMNAQGSLSMEDGKRLHRAVVKLQEYLDKKTKEKYEVGVLLSRHLRKQIDRGENGQFWIGTK
modifications: Alexa Fluor 647 maleimide on the native cysteines Cys-144, Cys-266 and Cys-375 (2.7 dye molecules per protein)
notes: Bni5, S. cerevisiae; the BNI5 ORF cloned behind His8 and a human rhinovirus 3C protease site in pH3c-LIC; also called Bni5^AF647; acceptor dye-labeled Bni5; source: E. coli NiCo21 (DE3), purified (IMAC, chitin-agarose, SEC), maleimide dye-labelled
B2: Cdc11(E294C)-capped, otherwise Cys-less septin hetero-octamer (Cdc11-Cdc12-Cdc3-Cdc10-Cdc10-Cdc3-Cdc12-Cdc11) (complex, S. cerevisiae)
chain 1: MSGIIDASSALRKRKHLKRGITFTVMIVGQSGSGRSTFINTLFGQQVVDTSTTILLPTDTSTEIDLQLREETVELEDDEGVKIQLNIIDTPGFGDSLDNSPSFEIISDYIRHQYDEILLEESRVRRNPRFKDGRVHAALYLINPTGHGLKEIDVEFIRQLGSLVNIIPVISKSDSLTRDELKLNKKLIMEDIDRWNLPIYNFPFDEDEISDEDYETNMYLRTLLPFAIIGSNEVYEMGGDVGTIRGRKYPWGILDVEDSSISDFVILRNALLISHLHDLKNYTHEILYERYRTCALSGESVAAESIRPNLTKLNGSSSSSTTTRRNTNPFKQSNNINNDVLNPASDMHGQSTGENNETYMTREEQIRLEEERLKAFEERVQQELLLKRQELLQREKELREIEARLEKEAKIKQEE
chain 2: MSAATATAAPVPPPVGISNLPNQRYKIVNEEGGTFTVMLAGESGLGKTTFINTLFQTVLKRADGQQHRQEPIRKTVEIDITRALLEEKHFELRVNVIDTPGFGDNVNNNKAWQPLVDFIDDQHDSYMRQEQQPYRTKKFDLRVHAVLYFIRPTGHGLKPIDIETMKRLSTRANLIPVIAKADTLTAQELQQFKSRIRQVIEAQEIRIFTPPLDADSKEDAKSGSNPDSAAVEHARQLIEAMPFAIVGSEKKFDNGQGTQVVARKYPWGLVEIENDSHSDFRKLRALLLRTYLLDLISTTQEMHYETYRRLRLEGHENTGEGNEDFTLPAIAPARKLSHNPRYKEEENALKKYFTDQVKAEEQRFRQWEQNIVNERIRLNGDLEEIQGKVKKLEEQVKSLQVKKSHLK
chain 3: MSLKEEQVSIKQDPEQEERQHDQFNDVQIKQESQDHDGVDSQYTNGTQNDDSERFEAAESDVKVEPGLGMGITSSQSEKGQVLPDQPEIKFIRRQINGYVGFANLPKQWHRRSIKNGFSFNLLVVGPDGIGKTTLMKTLFNNDDIEANLVKDYEEELANDQEEEEGQGEGHENQSQEQRHKVKIKSYESVIEENGVKLNLNVIDTEGFGDFLNNDQKSWDPIIKEIDSRFDQYLDAENKINRHSINDKRIHAVLYFIEPTGHYLKPLDLKFMQSVYEKVNLIPVIAKSDILTDEEILSFKKTIMNQLIQSNIELFKPPIYSNDDAENSHLSERLFSSLPYAVIGSNDIVENYSGNQVRGRSYPWGVIEVDNDNHSDFNLLKNLLIKQFMEELKERTSKILYENYRSSKLAKLGIKQDNSVFKEFDPISKQQEEKTLHEAKLAKLEIEMKTVFQQKVSEKEKKLQKSETELFARHKEMKEKLTKQLKALEDKKKQLELSINSASPNVNHSPVPTKKKGFLR
chain 4: MDPLSSVQPASYVGFDTITNQIEHRLLKKGFQFNIMVVGQSGLGKSTLINTLFASHLIDSATGDDISALPVTKTTEMKISTHTLVEDRVRLNINVIDTPGFGDFIDNSKAWEPIVKYIKEQHSQYLRKELTAQRERFITDTRVHAILYFLQPNGKELSRLDVEALKRLTEIANVIPVIGKSDTLTLDERTEFRELIQNEFEKYNFKIYPYDSEELTDEELELNRSVRSIIPFAVVGSENEIEINGETFRGRKTRWSAINVEDINQSDFVYLREFLIRTHLQDLIETTSYIHYEGFRARQLIALKENANSRSSAHMSSNAIQR
modifications: Alexa Fluor 555 maleimide (donor) or Alexa Fluor 647 maleimide (acceptor) on C294 (E294C); 0.7-0.8 dye molecules per subunit
notes: intact CTE (residues 303-415) restored; Cdc12, S. cerevisiae mitotic septin, Cys-less variant; Cdc3, S. cerevisiae mitotic septin, Cys-less variant; Cdc10, S. cerevisiae mitotic septin, Cys-less variant; The same preparation was labelled separately with donor (AF555) or acceptor (AF647); both are written as this one molecule; also called Cdc11^AF555; Cdc11^AF647; source: E. coli NiCo21 (DE3), …

How the values were obtained:
[1] = biological target: B2; assay: FRET or BRET; 15 nM Cdc11^AF555 octamers assembled into filaments at low salt, titrated with Bni5^AF647 (maximum 500 nM); apparent Kd; conditions: both partners purified
[2] = biological target: B2; assay: FRET or BRET; 25 nM Cdc11^AF555 octamers assembled into filaments at low salt, titrated with Bni5^AF647 (maximum 500 nM); apparent Kd; conditions: both partners purified
[3] = biological target: T1, Shs1(E344C)-capped, otherwise Cys-less septin hetero-octamer (Shs1-Cdc12-Cdc3-Cdc10-Cdc10-Cdc3-Cdc12-Shs1) (S. cerevisiae, UniProt Q07657 1-551; P32468 1-407; P32457 1-520; P25342 1-322, C29V | C148S | E344C | C40A | C278S | C124V | C253V | C279V | C266S, Alexa Fluor 555 maleimide (donor) or Alexa Fluor 647 maleimide (acceptor) on C344 (E344C)); assay: FRET or BRET; as a1 but 35 nM donor (AF555)-labelled octamers; 45 mM KCl, 50 mM Tris-HCl pH 8.0; room temperature; apparent Kd; conditions: both partners purified
T1 construct: Cdc12, S. cerevisiae mitotic septin, Cys-less variant; Cdc3, S. cerevisiae mitotic septin, Cys-less variant; Cdc10, S. cerevisiae mitotic septin, Cys-less variant; Donor- and acceptor-labelled preparations are written as this one molecule; also called Shs1^AF555; Shs1^AF647; source: E. coli NiCo21 (DE3), subunits co-expressed, purified (IMAC, chitin-agarose flow-through, SEC), maleimide …

[4] = biological target: the molecule itself; assay: as above
[5] = biological target: T1, Shs1(E344C)-capped, otherwise Cys-less …; assay: FRET or BRET; as a1 but 50 nM donor (AF555)-labelled octamers; 45 mM KCl, 50 mM Tris-HCl pH 8.0; room temperature; apparent Kd; conditions: both partners purified
[6] = biological target: the molecule itself; assay: as above
[7] = biological target: T1, Shs1(E344C)-capped, otherwise Cys-less …; assay: FRET or BRET; equimolar (1:1) donor- and acceptor-labelled octamers while varying ionic strength (KCl); PCA; EC50 of ionic strength and apparent Hill coefficient; conditions: both partners purified
[8] = biological target: the molecule itself; assay: as above
[9] = biological target: the molecule itself; assay: FRET or BRET; standard titrations of donor-labelled rods with acceptor-labelled rods in buffers of increasing KCl concentration (corrected FRET method); result at high ionic strength; apparent Kd
[10] = biological target: T1, Shs1(E344C)-capped, otherwise Cys-less …; assay: FRET or BRET; 25 nM donor (AF555)-labelled octamers titrated with acceptor (AF647)-labelled octamers, serial dilutions from 100 nM; 45 mM KCl, 50 mM Tris-HCl pH 8.0; room temperature, 1 h equilibration; triplicate; PCA and curve fit; apparent Kd of end-to-end association of rods; conditions: both partners purified
[11] = biological target: the molecule itself; assay: as above
[12] = biological target: T2, Shs1(Δ2–18/Δα0 E344C)-capped, otherwise Cys-less septin hetero-octamer (S. cerevisiae, UniProt Q07657 1-551; P32468 1-407; P32457 1-520; P25342 1-322, Δ2–18 | C29V | C148S | E344C | C40A | C278S | C124V | C253V | C279V | C266S, Alexa Fluor 555 maleimide (donor) on C344 (E344C)); assay: as above; conditions: both partners purified
T2 construct: Cdc12, S. cerevisiae mitotic septin, Cys-less variant; Cdc3, S. cerevisiae mitotic septin, Cys-less variant; Cdc10, S. cerevisiae mitotic septin, Cys-less variant; also called Shs1 Δα0^AF555; Shs1(Δα0) complexes; source: E. coli NiCo21 (DE3), subunits co-expressed, purified (IMAC, chitin-agarose flow-through, SEC), maleimide dye-labelled; not shown: His6, N-terminal, kept; copies: 2 + 2 + 2 + 2
T2 sequence (Q07657 other isoform, or with tags, fused parts or gaps with the stated changes): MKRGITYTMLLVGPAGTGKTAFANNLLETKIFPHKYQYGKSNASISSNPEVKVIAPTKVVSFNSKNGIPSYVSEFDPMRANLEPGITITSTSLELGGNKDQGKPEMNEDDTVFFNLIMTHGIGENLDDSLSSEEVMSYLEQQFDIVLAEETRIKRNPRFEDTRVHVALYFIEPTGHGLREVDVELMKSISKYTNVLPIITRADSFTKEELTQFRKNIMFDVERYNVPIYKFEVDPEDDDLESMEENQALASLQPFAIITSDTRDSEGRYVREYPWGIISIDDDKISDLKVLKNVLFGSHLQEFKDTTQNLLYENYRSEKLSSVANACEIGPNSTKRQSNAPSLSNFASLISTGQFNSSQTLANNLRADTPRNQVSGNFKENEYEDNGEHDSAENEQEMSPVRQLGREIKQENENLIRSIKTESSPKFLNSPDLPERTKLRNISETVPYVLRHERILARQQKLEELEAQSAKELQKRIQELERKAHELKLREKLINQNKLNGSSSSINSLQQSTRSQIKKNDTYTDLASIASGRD

T1 sequence (Q07657 whole entry C29V/C148S/E344C, one chain of several): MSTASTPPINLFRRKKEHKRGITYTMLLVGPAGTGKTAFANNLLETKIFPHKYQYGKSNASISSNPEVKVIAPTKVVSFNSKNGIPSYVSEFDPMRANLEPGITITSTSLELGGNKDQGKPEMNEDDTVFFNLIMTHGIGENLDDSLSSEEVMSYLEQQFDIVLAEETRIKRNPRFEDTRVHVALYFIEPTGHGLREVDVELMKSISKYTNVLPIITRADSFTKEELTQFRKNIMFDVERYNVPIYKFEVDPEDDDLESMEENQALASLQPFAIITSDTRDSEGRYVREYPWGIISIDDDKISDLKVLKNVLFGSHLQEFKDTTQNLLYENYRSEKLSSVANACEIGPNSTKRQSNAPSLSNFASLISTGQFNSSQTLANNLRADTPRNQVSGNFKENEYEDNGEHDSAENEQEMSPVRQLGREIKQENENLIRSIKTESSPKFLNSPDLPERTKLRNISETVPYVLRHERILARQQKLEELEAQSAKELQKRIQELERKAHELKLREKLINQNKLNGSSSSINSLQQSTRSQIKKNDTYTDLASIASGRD

Binder: B1
- Kd [1]: 0.222 µM
- Kd [2]: 0.21 µM

Binder: B2
- Kd [3]: 0.0213 µM
- Kd [4]: 0.0345 µM
- Kd [5]: 0.0275 µM
- Kd [6]: 0.0388 µM
- ionic strength (KCl) at EC50 of the FRET signal [7]: 198000 µM
- ionic strength (KCl) at EC50 of the FRET signal [8]: 181000 µM
- Kd [9]: > 0.1 µM
- Kd [10]: 0.0108 µM
- Kd [11]: 0.0202 µM
- Kd [12]: 0.0406 µM
